The text below walks through data of patent publication US20220249439A1 (FRED HUTCHINSON CANCER RESEARCH CENTER, published 2022).

For this test, the target named is T1, eIF4E (mouse, endogenous in Pten^L/L prostate tissue) (mouse, UniProt P63073 2-217).
T1 construct: Endogenous protein in mouse prostate tumor tissue, detected with an antibody (SCBT) in a proximity ligation assay; also called eIF4E translation initiation factor; eukaryotic translation initiation factor 4E
In words: in situ proximity ligation assay on castrate vs intact Pten^L/L mouse prostate tumors; confirmed by m7GTP cap-binding assay. As for the experimental part: Flash frozen intact and castrate Pten^{L/L} ventral prostates dissected from each animal or from AR+ parental and AR− APIPC tumors were pulverized with mortar and pestle in appropriate volumes of lysis buffer containing 10 mM Tris/HCL pH 7.6, 140 mM KCl, 4 mM MgCl₂, 1 mM DTT, 1 mM EDTA, 1% Nonidet P-40 supplemented with phosphatase and protease inhibitor cocktails (Roche) and lysed for 30 min on ice. Lysates were cleared by centrifugation at 12000 rpm for 25 min at 4° C. Supernatants were collected and assayed for protein concentration using the Protein Assay Dye Reagent (Bio-Rad). 250 μg of protein were incubated rotating with 50 μl of γ-aminophenyl-m7GTP (C10-spacer)-agarose beads (Jena Bioscience) in lysis buffer without Nonidet P-40 at 4° C. overnight. After two washes in lysis buffer containing 0.5% Nonidet P-40 and two washes in PBS, beads were re-suspended in 60 μl of 1×SDS loading buffer and boiled for 5 min. Thirty microliters of boiled lysates were western blotted for eIF4G, eIF4E, and 4EBP1.
To test this hypothesis, proximity ligation assays (PLA) for eIF4E-eIF4G interactions and eIF4E-4EBP1 interactions were optimized (FIG. 2A). […] This was also confirmed by the cap-binding assay (FIG. 11A). […]

T1 sequence (P63073 2-217 limits assumed): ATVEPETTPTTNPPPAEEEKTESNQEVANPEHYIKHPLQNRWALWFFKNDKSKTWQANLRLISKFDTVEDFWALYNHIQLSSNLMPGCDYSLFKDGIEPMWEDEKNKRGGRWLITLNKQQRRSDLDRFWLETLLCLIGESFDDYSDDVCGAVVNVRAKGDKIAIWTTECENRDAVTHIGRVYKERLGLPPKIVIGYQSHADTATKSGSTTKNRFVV

B1: 4EBP1 (mouse, endogenous in Pten^L/L prostate tissue) (other, UniProt Q60876 2-117, looked up)
chain: SAGSSCSQTPSRAIPTRRVALGDGVQLPPGDYSTTPGGTLFSTTPGGTRIIYDRKFLMECRNSPVAKTPPKDLPAIPGVTSPTSDEPPMQASQSQLPSSPEDKRAGGEESQFEMDI
notes: Endogenous protein
For B1, the binding result is on record as “binds”.
